Data on one substance can be found in patent US20140072613A1, “Compositions and Methods for Treating Cutaneous Scarring” (priority 2012, published 2014).

Targets include JNK2α2(h) (human) (UniProt P45984); Met(Y1248H)(h) (human) (UniProt P08581); MEK1(h) (human) (UniProt Q02750); TrkA(h) (human) (UniProt P04629); PKBα(h) (human) (UniProt P31749); Met(h) (human) (UniProt P08581); Rsk4(h) (human) (UniProt Q9UK32).
What all share (assay): cell-based or functional assay
The target of the next test is T1, Fms(h) (human) (UniProt P07333).
T1 sequence (looked up): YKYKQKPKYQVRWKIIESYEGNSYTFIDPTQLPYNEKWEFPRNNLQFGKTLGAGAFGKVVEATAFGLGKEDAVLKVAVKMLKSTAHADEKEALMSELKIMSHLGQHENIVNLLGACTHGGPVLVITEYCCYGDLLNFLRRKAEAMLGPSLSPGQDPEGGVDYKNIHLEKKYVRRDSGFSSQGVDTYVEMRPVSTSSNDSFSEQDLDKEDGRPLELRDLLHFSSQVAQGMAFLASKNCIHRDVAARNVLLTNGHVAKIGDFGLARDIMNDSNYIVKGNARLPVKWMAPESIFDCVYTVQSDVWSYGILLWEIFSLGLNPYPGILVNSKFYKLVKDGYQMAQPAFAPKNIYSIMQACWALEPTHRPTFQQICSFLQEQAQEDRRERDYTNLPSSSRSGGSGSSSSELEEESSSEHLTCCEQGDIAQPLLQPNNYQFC

The target of another test is T2, DDR2(h) (human) (UniProt Q16832).
T2 sequence (looked up): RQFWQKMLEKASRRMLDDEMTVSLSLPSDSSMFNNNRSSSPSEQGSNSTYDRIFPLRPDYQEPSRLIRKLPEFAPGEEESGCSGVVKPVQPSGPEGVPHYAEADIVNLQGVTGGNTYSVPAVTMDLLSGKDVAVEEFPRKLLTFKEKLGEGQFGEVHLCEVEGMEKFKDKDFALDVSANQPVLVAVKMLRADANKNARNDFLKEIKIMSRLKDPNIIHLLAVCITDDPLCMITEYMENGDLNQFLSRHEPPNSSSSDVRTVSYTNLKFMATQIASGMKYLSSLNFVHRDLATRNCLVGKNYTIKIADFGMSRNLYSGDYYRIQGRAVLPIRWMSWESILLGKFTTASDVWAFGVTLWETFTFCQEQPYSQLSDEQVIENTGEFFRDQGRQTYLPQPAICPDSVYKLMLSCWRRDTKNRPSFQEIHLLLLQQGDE

Another test concerns the target T3, SAPK3(h) (human) (UniProt P53778).
T3 sequence (looked up): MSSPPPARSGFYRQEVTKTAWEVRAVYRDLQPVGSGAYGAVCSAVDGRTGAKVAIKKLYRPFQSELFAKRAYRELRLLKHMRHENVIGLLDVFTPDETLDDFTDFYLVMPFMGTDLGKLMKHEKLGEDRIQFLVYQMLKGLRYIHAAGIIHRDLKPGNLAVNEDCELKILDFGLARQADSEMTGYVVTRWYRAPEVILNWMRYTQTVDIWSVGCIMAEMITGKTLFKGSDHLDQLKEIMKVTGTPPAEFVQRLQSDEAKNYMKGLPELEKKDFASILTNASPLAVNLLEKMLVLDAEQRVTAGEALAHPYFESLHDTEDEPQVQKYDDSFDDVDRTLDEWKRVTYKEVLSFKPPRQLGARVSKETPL

In a further test the target is T4, Aurora-A(h) (human) (UniProt O14965).
T4 sequence (looked up): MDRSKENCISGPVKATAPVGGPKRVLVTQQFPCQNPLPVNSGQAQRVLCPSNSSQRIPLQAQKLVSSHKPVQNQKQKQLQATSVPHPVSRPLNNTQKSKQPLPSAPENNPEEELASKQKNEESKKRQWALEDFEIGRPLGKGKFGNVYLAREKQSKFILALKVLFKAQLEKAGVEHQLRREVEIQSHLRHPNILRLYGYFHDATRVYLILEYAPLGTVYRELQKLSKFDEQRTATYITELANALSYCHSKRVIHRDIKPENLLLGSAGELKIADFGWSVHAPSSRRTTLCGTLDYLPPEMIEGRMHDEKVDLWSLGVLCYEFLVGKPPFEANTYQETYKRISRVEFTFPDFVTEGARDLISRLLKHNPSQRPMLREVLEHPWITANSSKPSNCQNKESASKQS

The next test has as its target T5, NLK(h) (human) (UniProt Q9UBE8).
T5 sequence (looked up): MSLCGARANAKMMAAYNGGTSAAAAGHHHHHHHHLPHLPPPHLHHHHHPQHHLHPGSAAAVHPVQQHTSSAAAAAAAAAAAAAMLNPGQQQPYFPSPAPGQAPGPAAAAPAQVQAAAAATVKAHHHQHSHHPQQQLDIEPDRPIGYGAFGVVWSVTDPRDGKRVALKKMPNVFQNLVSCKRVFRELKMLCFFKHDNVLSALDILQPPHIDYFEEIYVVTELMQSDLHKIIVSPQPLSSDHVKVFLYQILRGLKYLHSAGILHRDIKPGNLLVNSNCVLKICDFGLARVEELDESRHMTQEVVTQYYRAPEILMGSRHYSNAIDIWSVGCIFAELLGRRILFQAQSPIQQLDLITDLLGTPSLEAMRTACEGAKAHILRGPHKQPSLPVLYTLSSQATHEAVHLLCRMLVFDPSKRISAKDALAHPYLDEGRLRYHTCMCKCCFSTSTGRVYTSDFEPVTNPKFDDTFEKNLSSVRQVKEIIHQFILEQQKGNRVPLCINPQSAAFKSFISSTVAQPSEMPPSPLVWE

For another test, the target named is T6, Rse(h) (human) (UniProt Q06418).
T6 sequence (looked up): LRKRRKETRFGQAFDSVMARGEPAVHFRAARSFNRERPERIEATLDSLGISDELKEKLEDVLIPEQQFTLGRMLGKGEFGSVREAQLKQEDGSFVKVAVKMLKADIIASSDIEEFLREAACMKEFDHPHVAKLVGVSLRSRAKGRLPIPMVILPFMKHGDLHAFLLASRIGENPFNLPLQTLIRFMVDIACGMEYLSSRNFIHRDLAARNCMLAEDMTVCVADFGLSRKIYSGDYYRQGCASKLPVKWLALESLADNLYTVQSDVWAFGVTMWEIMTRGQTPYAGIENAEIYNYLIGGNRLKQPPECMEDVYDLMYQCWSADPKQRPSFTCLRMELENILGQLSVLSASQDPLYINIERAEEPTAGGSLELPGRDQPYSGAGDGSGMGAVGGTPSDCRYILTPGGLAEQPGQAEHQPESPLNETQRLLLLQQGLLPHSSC

PKBα(h) (human), sequence (P31749 whole entry): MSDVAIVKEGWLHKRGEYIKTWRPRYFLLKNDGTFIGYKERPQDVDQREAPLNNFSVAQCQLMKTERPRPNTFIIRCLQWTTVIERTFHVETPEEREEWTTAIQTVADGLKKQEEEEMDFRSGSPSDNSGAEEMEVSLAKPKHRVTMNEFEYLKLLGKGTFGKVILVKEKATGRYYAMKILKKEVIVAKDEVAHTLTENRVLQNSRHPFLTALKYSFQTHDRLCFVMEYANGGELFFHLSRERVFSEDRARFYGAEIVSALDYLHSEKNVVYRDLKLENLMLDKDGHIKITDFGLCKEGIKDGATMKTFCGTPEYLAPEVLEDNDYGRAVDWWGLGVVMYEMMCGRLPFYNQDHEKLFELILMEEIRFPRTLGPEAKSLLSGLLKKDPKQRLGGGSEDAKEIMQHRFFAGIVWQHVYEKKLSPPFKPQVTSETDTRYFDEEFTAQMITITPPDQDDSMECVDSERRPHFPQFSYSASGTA
Rsk4(h) (human), sequence (Q9UK32 whole entry): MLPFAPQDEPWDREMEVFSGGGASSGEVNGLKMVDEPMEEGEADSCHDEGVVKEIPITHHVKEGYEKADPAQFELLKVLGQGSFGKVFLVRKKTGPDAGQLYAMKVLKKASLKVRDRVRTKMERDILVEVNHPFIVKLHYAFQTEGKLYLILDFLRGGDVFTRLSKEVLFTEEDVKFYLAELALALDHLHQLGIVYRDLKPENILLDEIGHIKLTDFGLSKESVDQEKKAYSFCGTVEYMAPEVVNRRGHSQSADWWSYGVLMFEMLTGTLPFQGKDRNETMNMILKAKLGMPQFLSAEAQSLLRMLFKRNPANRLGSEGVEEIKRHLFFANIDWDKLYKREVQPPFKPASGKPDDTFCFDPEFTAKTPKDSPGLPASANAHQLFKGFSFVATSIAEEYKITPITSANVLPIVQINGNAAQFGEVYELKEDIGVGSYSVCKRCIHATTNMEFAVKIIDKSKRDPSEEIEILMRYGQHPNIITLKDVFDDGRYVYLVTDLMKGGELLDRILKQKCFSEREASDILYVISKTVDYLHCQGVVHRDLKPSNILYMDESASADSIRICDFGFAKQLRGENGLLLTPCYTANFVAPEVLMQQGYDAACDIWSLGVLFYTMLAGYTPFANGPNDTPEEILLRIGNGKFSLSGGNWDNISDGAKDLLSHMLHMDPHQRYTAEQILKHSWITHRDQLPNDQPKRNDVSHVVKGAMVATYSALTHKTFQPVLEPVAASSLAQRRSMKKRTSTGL
TrkA(h) (human), sequence (P04629 441-796 limits assumed): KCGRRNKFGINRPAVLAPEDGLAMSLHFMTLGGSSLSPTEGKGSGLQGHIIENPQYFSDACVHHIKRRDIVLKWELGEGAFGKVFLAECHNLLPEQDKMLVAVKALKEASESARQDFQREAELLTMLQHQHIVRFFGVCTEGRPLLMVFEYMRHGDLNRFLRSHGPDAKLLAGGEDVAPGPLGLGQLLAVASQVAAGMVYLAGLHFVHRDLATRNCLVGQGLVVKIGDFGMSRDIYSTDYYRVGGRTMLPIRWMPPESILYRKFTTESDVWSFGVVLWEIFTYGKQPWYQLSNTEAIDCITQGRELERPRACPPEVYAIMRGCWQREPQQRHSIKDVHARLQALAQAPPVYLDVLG

MMI-0500 (peptide): the % activity, 100 µM with Fms(h) (human) was 14%; with JNK2α2(h) (human) it was 81%; with Met(Y1248H)(h) (human) it was 126%; with DDR2(h) (human), 79%; in the test with SAPK3(h) (human) it was 24%; in the test with MEK1(h) (human), 21%. The % activity, 100 µM in the test with Aurora-A(h) (human) is 110%; in the test with TrkA(h) (human) it was 24%; with NLK(h) (human), 19%; with PKBα(h) (human), 30%; in the test with Met(h) (human), 27%; with Rsk4(h) (human), 29%. Moreover, the % activity, 100 µM in the test with Rse(h) (human) was 63%.
